Laboratory results: US20250352667A1
Values belong to the binder of their own block, whether it stands above or below them.

Key:
[1] = molecular target: KEAP1 (wild-type full-length), His-tagged (human) (UniProt Q14145); experiment: AlphaScreen; 38.4 nM FLAG-NRF2, 150 nM His-KEAP1; wild type set to 100%
[2] = molecular target: KEAP1 (wild-type full-length), His-tagged (human) (UniProt Q14145); experiment: AlphaScreen, all variants on one plate; upper condition (38.4 nM NRF2), KEAP1 150 nM; the reference itself
[3] = molecular target: KEAP1 (wild-type full-length), His-tagged (human) (UniProt Q14145); experiment: AlphaScreen; FLAG-NRF2 wt isoform 1 38.4 nM, His-KEAP1 150 nM; Rep 1; positive control for I86V
[4] = molecular target: KEAP1 (wild-type full-length), His-tagged (human) (UniProt Q14145); experiment: AlphaScreen; NRF2 wt isoform 1 19.2 nM, KEAP1 150 nM; signal against NRF2-only control; control for I86V
[5] = molecular target: KEAP1 (wild-type full-length), His-tagged (human) (UniProt Q14145); experiment: AlphaScreen; 38.4 nM FLAG-NRF2, 150 nM His-KEAP1; Rep 2; control for I86V
[6] = molecular target: KEAP1 (wild-type full-length), His-tagged (human) (UniProt Q14145); experiment: AlphaScreen; FLAG-NRF2 wt isoform 1 9.6 nM, His-KEAP1 150 nM; Rep 2; positive control for I86V
[7] = molecular target: KEAP1 (wild-type full-length), His-tagged (human) (UniProt Q14145); experiment: AlphaScreen; NRF2 wt isoform 1 38.4 nM, KEAP1 150 nM; set as the 100 % reference for I86V
[8] = molecular target: KEAP1 (wild-type full-length), His-tagged (human) (UniProt Q14145); experiment: AlphaScreen; 19.2 nM FLAG-NRF2, 150 nM His-KEAP1 (same value as in Table 26)
[9] = molecular target: KEAP1 (wild-type full-length), His-tagged (human) (UniProt Q14145); experiment: AlphaScreen; 9.6 nM FLAG-NRF2, 150 nM His-KEAP1; Rep 3; control for I86V
[10] = molecular target: KEAP1 (wild-type full-length), His-tagged (human) (UniProt Q14145); experiment: AlphaScreen; 19.2 nM FLAG-NRF2, 150 nM His-KEAP1; Repeat 2 (same value as in Table 26)
[11] = molecular target: KEAP1 (wild-type full-length), His-tagged (human) (UniProt Q14145); experiment: AlphaScreen; 76.8 nM FLAG-NRF2, 150 nM His-KEAP1; Rep 3; control for I86V
[12] = molecular target: KEAP1 (wild-type full-length), His-tagged (human) (UniProt Q14145); experiment: AlphaScreen; 76.8 nM FLAG-NRF2, 150 nM His-KEAP1; Rep 2; control for I86V
[13] = molecular target: KEAP1 (wild-type full-length), His-tagged (human) (UniProt Q14145); experiment: AlphaScreen; 9.6 nM FLAG-NRF2, 150 nM His-KEAP1; signal against NRF2 only; control for I28V
[14] = molecular target: KEAP1 (wild-type full-length), His-tagged (human) (UniProt Q14145); experiment: AlphaScreen; 614.4 nM FLAG-NRF2, 150 nM His-KEAP1; signal against NRF2 only; control for I86V
[15] = molecular target: KEAP1 (wild-type full-length), His-tagged (human) (UniProt Q14145); experiment: AlphaScreen; 614.4 nM FLAG-NRF2, 150 nM His-KEAP1; Rep 3; control for I86V
[16] = molecular target: KEAP1 (wild-type full-length), His-tagged (human) (UniProt Q14145); experiment: AlphaScreen; mean over 9.6, 19.2 and 38.4 nM NRF2 wt isoform 1, KEAP1 150 nM; reference for I86V
[17] = molecular target: KEAP1 (wild-type full-length), His-tagged (human) (UniProt Q14145); experiment: AlphaScreen; 9.6 nM FLAG-NRF2, 150 nM His-KEAP1 (same value as in Table 27)
[18] = molecular target: KEAP1 (wild-type full-length), His-tagged (human) (UniProt Q14145); experiment: AlphaScreen; 38.4 nM FLAG-NRF2, 150 nM His-KEAP1; Repeat 2 (same value as in Table 27)
[19] = molecular target: KEAP1 (wild-type full-length), His-tagged (human) (UniProt Q14145); experiment: AlphaScreen; 614.4 nM FLAG-NRF2, 150 nM His-KEAP1; Rep 2
[20] = molecular target: KEAP1 (wild-type full-length), His-tagged (human) (UniProt Q14145); experiment: AlphaScreen; 307.2 nM FLAG-NRF2, 150 nM His-KEAP1; Rep 2
[21] = molecular target: KEAP1 (wild-type full-length), His-tagged (human) (UniProt Q14145); experiment: AlphaScreen; 4.8 nM FLAG-NRF2, 150 nM His-KEAP1; Rep 1
[22] = molecular target: KEAP1 (wild-type full-length), His-tagged (human) (UniProt Q14145); experiment: AlphaScreen; 2.4 nM FLAG-NRF2, 150 nM His-KEAP1; Rep 2
[23] = molecular target: KEAP1 (wild-type full-length), His-tagged (human) (UniProt Q14145); experiment: AlphaScreen; NRF2 I86V 38.4 nM, KEAP1 150 nM; signal against NRF2-only control
[24] = molecular target: KEAP1 (wild-type full-length), His-tagged (human) (UniProt Q14145); experiment: AlphaScreen; FLAG-NRF2 I86V 1228.8 nM, His-KEAP1 150 nM; Rep 3
[25] = molecular target: KEAP1 (wild-type full-length), His-tagged (human) (UniProt Q14145); experiment: AlphaScreen; FLAG-NRF2 Q75R 2.4 nM, His-KEAP1 150 nM; Rep 2
[26] = molecular target: KEAP1 (wild-type full-length), His-tagged (human) (UniProt Q14145); experiment: AlphaScreen; FLAG-NRF2 Q75R 307.2 nM, His-KEAP1 150 nM; Rep 1
[27] = molecular target: KEAP1 (wild-type full-length), His-tagged (human) (UniProt Q14145); experiment: AlphaScreen; FLAG-NRF2 Q75R 19.2 nM, His-KEAP1 150 nM; Rep 2

KEAP1 (wild-type full-length), His-tagged (human), sequence (Q14145 2-624 limits assumed): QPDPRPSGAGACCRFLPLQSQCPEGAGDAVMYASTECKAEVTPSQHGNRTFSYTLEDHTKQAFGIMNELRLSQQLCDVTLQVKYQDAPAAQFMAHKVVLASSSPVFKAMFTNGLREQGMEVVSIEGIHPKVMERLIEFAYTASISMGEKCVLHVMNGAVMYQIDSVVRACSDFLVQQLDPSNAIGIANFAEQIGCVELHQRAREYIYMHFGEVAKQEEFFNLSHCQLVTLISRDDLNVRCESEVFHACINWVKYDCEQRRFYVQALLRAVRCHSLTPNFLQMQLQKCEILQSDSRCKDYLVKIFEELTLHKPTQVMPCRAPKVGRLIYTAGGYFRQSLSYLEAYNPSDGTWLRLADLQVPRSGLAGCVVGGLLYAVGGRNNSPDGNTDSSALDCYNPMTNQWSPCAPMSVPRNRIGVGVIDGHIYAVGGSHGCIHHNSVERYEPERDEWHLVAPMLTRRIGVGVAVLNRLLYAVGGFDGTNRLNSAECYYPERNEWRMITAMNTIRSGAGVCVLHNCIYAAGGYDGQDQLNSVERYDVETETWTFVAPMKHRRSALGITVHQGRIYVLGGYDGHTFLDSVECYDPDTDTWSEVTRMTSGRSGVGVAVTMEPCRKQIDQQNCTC

- Binding Percentage (%) [1]: 100%
- % Disruption in Binding [2]: 0%
- A-counts (NRF2 plus KEAP1) [3]: 3100 A-counts
- S/N [4]: 4.1
- A-counts [5]: 2850 A-counts
- A-counts (NRF2 plus KEAP1) [6]: 2720 A-counts
- Binding Percentage [7]: 100%
- S/N [8]: 4.2
- A-counts [9]: 2410 A-counts
- A-counts [10]: 2000 A-counts
- A-counts [11]: 2880 A-counts
- A-counts [12]: 2780 A-counts
- S/N [13]: 4.1
- S/N [14]: 1.1
- A-counts [15]: 2720 A-counts
- Average Binding [16]: 100%
B1: NRF2 isoform 1 (wild-type full-length), FLAG-tagged (protein)
chain: MMDLELPPPGLPSQQDMDLIDILWRQDIDLGVSREVFDFSQRRKEYELEKQKKLEKERQEQLQKEQEKAFFAQLQLDEETGEFLPIQPAQHIQSETSGSANYSQVAHIPKSDALYFDDCMQLLAQTFPFVDDNEVSSATFQSLVPDIPGHIESPVFIATNQAQSPETSVAQVAPVDLDGMQQDIEQVWEELLSIPELQCLNIENDKLVETTMVPSPEAKLTEVDNYHFYSSIPSMEKEVGNCSPHFLNAFEDSFSSILSTEDPNQLTVNSLNSDATVNTDFGDEFYSAFIAEPSISNSMPSPATLSHSLSELLNGPIDVSDLSLCKAFNQNHPESTAEFNDSDSGISLNTSPSVASPEHSVESSSYGDTLLGLSDSEVEELDSAPGSVKQNGPKTPVHSSGDMVQPLSPSQGQSTHVHDAQCENTPEKELPVSPGHRKTPFTKDKHSSRLEAHLTRDELRAKALHIPFPVEKIINLPVVDFNEMMSKEQFNEAQLALIRDIRRRGKNKVAAQNCRKRKLENIVELEQDLDHLKDEKEKLLKEKGENDKSLHLLKKQLSTLYLEVFSMLRDEDGKPYSPSEYSLQQTRDGNVFLVPKSKKPDVKKN

- S/N [17]: 3.4
- A-counts [18]: 1680 A-counts
- A-counts [19]: 1210 A-counts
- A-counts [20]: 1260 A-counts
- A-counts [21]: 1120 A-counts
- A-counts [22]: 696 A-counts
B2: NRF2 isoform 1 (I28V full-length), FLAG-tagged (protein)
chain: MMDLELPPPGLPSQQDMDLIDILWRQDVDLGVSREVFDFSQRRKEYELEKQKKLEKERQEQLQKEQEKAFFAQLQLDEETGEFLPIQPAQHIQSETSGSANYSQVAHIPKSDALYFDDCMQLLAQTFPFVDDNEVSSATFQSLVPDIPGHIESPVFIATNQAQSPETSVAQVAPVDLDGMQQDIEQVWEELLSIPELQCLNIENDKLVETTMVPSPEAKLTEVDNYHFYSSIPSMEKEVGNCSPHFLNAFEDSFSSILSTEDPNQLTVNSLNSDATVNTDFGDEFYSAFIAEPSISNSMPSPATLSHSLSELLNGPIDVSDLSLCKAFNQNHPESTAEFNDSDSGISLNTSPSVASPEHSVESSSYGDTLLGLSDSEVEELDSAPGSVKQNGPKTPVHSSGDMVQPLSPSQGQSTHVHDAQCENTPEKELPVSPGHRKTPFTKDKHSSRLEAHLTRDELRAKALHIPFPVEKIINLPVVDFNEMMSKEQFNEAQLALIRDIRRRGKNKVAAQNCRKRKLENIVELEQDLDHLKDEKEKLLKEKGENDKSLHLLKKQLSTLYLEVFSMLRDEDGKPYSPSEYSLQQTRDGNVFLVPKSKKPDVKKN

- S/N [23]: 2.9
- A-counts (NRF2 plus KEAP1) [24]: 1620 A-counts
B3: NRF2 isoform 1 (I86V full-length), FLAG-tagged (protein)
chain: MMDLELPPPGLPSQQDMDLIDILWRQDIDLGVSREVFDFSQRRKEYELEKQKKLEKERQEQLQKEQEKAFFAQLQLDEETGEFLPVQPAQHIQSETSGSANYSQVAHIPKSDALYFDDCMQLLAQTFPFVDDNEVSSATFQSLVPDIPGHIESPVFIATNQAQSPETSVAQVAPVDLDGMQQDIEQVWEELLSIPELQCLNIENDKLVETTMVPSPEAKLTEVDNYHFYSSIPSMEKEVGNCSPHFLNAFEDSFSSILSTEDPNQLTVNSLNSDATVNTDFGDEFYSAFIAEPSISNSMPSPATLSHSLSELLNGPIDVSDLSLCKAFNQNHPESTAEFNDSDSGISLNTSPSVASPEHSVESSSYGDTLLGLSDSEVEELDSAPGSVKQNGPKTPVHSSGDMVQPLSPSQGQSTHVHDAQCENTPEKELPVSPGHRKTPFTKDKHSSRLEAHLTRDELRAKALHIPFPVEKIINLPVVDFNEMMSKEQFNEAQLALIRDIRRRGKNKVAAQNCRKRKLENIVELEQDLDHLKDEKEKLLKEKGENDKSLHLLKKQLSTLYLEVFSMLRDEDGKPYSPSEYSLQQTRDGNVFLVPKSKKPDVKKN

- A-counts (NRF2 plus KEAP1) [25]: 566 A-counts
- A-counts (NRF2 plus KEAP1) [26]: 995 A-counts
- A-counts (NRF2 plus KEAP1) [27]: 1280 A-counts
B4: NRF2 isoform 1 (Q75R full-length), FLAG-tagged (protein)
chain: MMDLELPPPGLPSQQDMDLIDILWRQDIDLGVSREVFDFSQRRKEYELEKQKKLEKERQEQLQKEQEKAFFAQLRLDEETGEFLPIQPAQHIQSETSGSANYSQVAHIPKSDALYFDDCMQLLAQTFPFVDDNEVSSATFQSLVPDIPGHIESPVFIATNQAQSPETSVAQVAPVDLDGMQQDIEQVWEELLSIPELQCLNIENDKLVETTMVPSPEAKLTEVDNYHFYSSIPSMEKEVGNCSPHFLNAFEDSFSSILSTEDPNQLTVNSLNSDATVNTDFGDEFYSAFIAEPSISNSMPSPATLSHSLSELLNGPIDVSDLSLCKAFNQNHPESTAEFNDSDSGISLNTSPSVASPEHSVESSSYGDTLLGLSDSEVEELDSAPGSVKQNGPKTPVHSSGDMVQPLSPSQGQSTHVHDAQCENTPEKELPVSPGHRKTPFTKDKHSSRLEAHLTRDELRAKALHIPFPVEKIINLPVVDFNEMMSKEQFNEAQLALIRDIRRRGKNKVAAQNCRKRKLENIVELEQDLDHLKDEKEKLLKEKGENDKSLHLLKKQLSTLYLEVFSMLRDEDGKPYSPSEYSLQQTRDGNVFLVPKSKKPDVKKN
